Experimental data: patent US10308973B1, “Real-time imaging method of NAPDH-dependent metabolic activity in cell and use thereof” (INDUSTRY FOUNDATION OF CHONNAM NATIONAL UNIVERSITY, priority 2018, dated 2019)

Tests used:
[1] = system: mBFP-transformed animal cells; assay: NADPH imaging of mBFP-transformed animal cells treated with NADPH dehydrogenase inhibitors; assay type: cell-based; details: compared among the inhibitors of Table 3
Experimental: The mBFP-transformed animal cells were cultured and treated with NADPH dehydrogenase inhibitors shown in Table 3, respectively, and the amount of change in NADPH was measured.

[2] = system: recombinant animal cells (HeLa cell); assay: Two-photon fluorescence imaging of mBFP-expressing animal cells after oxidant treatment; assay type: cell-based; details: 40 μM diamide; glucose-free medium; images every second
Experimental: The recombinant animal cells produced in the Examples above were treated with diamide, which is an oxidant, to reduce the amount of NADPH in the cells, and the change in fluorescence was observed as follows. First, before observing the recombinant animal cells, the medium was replaced with a culture medium from which glucose was removed to prevent continuous overproduction of NADPH, and the cells were cultured for 1 hour and images thereof were observed. After treatment with 40 μM diamide, fluorescence images were taken every second using a real-time image measurement method using a two-photon microscopy.

[3] = Enzyme activity (aldehyde dehydrogenase) of purified mutant mBFP; assay type: biochemical; details: purified protein
Experimental: In order to measure benzaldehyde dehydrogenase activity, a reaction solution of pH 7.5 in which 100 mM Tris, 100 mM sodium chloride, 0.05% Triton X-100, […] and added at an amount of 10 μL per well containing 90 μL of cultured cells, and reacted for 10 minutes. The change in fluorescence value was measured by the fluorescence reader to measure the amount of NADPH consumed by the activity of mBFP mutant enzyme.
In order to measure the enzyme activity of the short-chain dehydrogenase/reductase family (SDR family) of the purified mutant mBFP, a reaction solution (100 mM Tris, 100 mM sodium chloride, 0.05% Triton X-100, 0.5 mM benzaldehyde, 0.5 mM NADPH, pH 7.5) for measuring aldehyde dehydrogenase was added at an amount of 10 μL to each well to which the protein was added, and reacted for 10 minutes, and then the amount of reduced NADPH was measured using a fluorescent reader.

[4] = Benzaldehyde reductase activity of mBFP purified from transformed cells; assay type: biochemical; details: benzaldehyde reaction solution
Experimental: The cultured cells were disrupted, recovered, and purified using the His-tag as follows.
The cell supernatant disrupted with phosphate buffered saline (PBS) was injected into and passed through Ni-NTA Spin Columns (Qiagen), and washed with wash buffer (PBS, 10 mM imidazole). Then, the mBFP protein was recovered with the elution buffer (PBS, 100 mM imidazole).
In order to confirm whether the mBFP protein had activity as a reductase through mutation, the reductase activity of mBFP was measured using the reaction solution for measuring the benzaldehyde reductase activity of Example 1 above.

Q: For `NC(=O)c1ccc(N)nc1` [6-ANA, 6-Aminonicotinamide], which “difference of fluorescence intensity due to mBFP after inhibitor treatment” value [1] is on record?
A: The value was “the largest”.

Q: With `C[C@]12CC[C@H](O)CC1=CC[C@@H]1[C@@H]2CC[C@]2(C)C(=O)CC[C@@H]12` [DHEA, Dehydroepiandrosterone] as the molecule, how does the “difference of fluorescence intensity due to mBFP after inhibitor treatment” value [1] read?
A: The value was “the largest”.

Q: Which “fluorescence intensity after oxidant treatment” value [2] does the source give for `CN(C)C(=O)/N=N/C(=O)N(C)C` [diamide] here?
A: The value was “rapidly decreased”.

B1: Wild type: wild-type metagenome-derived blue fluorescent protein, SEQ ID NO: 6, GenBank Accession No. AF485783 (protein)
chain: MQNLNGKVAFVTGGSRGIGAAIVRRLAADGADIAFTYVSASSKNVATALVQELEAKGRRARAIQADSADPAQVRQAVEQAIVQLGPVDVLVNNAGIFLAGPLGEVTLDDYERTMNINVRAPFVAIQAAQASMPDGGRIINIGSCLAERAGRAGVTLYAASKSALLGMTRGLARDLGARGITANVVHPGPIDTDMNPADGERSGELVAVLSLPHYGEVRDIAGMVAFLAGPDGRYVTGASLAVDGGFAA
modifications: BFP wild type Y157 w/o his-tag
Q: Which “Enzyme activity of mutant mBFP, Acetaldehyde” value ([3]; substrate acetaldehyde) does the source give for B1 here?
A: Its value is 10.34 ± 0.24 U mg^−1.

Q: And the “Enzyme activity of mutant mBFP, Benzaldehyde” value ([3]; substrate benzaldehyde)?
A: The value was 6.41 ± 0.34 U mg^−1.

Q: And the “Enzyme activity of mutant mBFP, Hexanal” value ([3]; substrate hexanal)?
A: Its value is 4.34 ± 0.14 U mg^−1.

Q: And the “Enzyme activity of mutant mBFP, Pivaldehyde” value ([3]; substrate pivaldehyde)?
A: Its value is 14.43 ± 0.68 U mg^−1.

Q: What about the “reductase activity (in words)” value [4] of the same molecule?
A: Its value is “exhibited the reductase activity”.
